The labels stand for the following.
T1: amphyphisin SH3 (AMPH_HUMAN), P49418
T1 chain: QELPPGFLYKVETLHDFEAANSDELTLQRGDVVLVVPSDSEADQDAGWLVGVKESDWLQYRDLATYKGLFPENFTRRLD

The target in the first test is endophilin SH3 (SH3G2_HUMAN), Q99962. As to the kind of experiment: SPOT array.
As for QAGGPQRPGRVVSL [Q13671 45-58], the normalised SPOT signal, Boehringer light units (BLU); mean over the file's lines of this peptide came out at 556.

As for QEDSPRKPPNFPVP [Q8TEE1 827-841], the normalised SPOT signal, Boehringer light units (BLU); mean over the file's lines of this peptide came to 142.

On to QDLRPLRPPAQTPQ [O00456 524-538], for which the normalised SPOT signal, Boehringer light units (BLU); mean over the file's lines of this peptide came out at 154.

Take PWRGFSRPSRFFSS [Q14968 167-180]: the normalised SPOT signal, Boehringer light units (BLU); mean over the file's lines of this peptide was determined as 218.

The molecule PVLDLRRPPSDLYL [Q9Y618 2172-2185] gave a normalised SPOT signal, Boehringer light units (BLU); mean over the file's lines of this peptide of 63.7.

For PTSVPRRPGQRRPP [P48023 33-46], the normalised SPOT signal, Boehringer light units (BLU); mean over the file's lines of this peptide was 870.

In turn, QAVHLPRPPRVLGL [Q9H960 30-43] came in with a normalised SPOT signal, Boehringer light units (BLU); mean over the file's lines of this peptide of 178.

The molecule ASSRPGRPPKRTQS [Q9UI36 281-295] displayed a normalised SPOT signal, Boehringer light units (BLU); mean over the file's lines of this peptide of 5690.

QAQLPPKPPAWAWA [P54098 158-172] showed a normalised SPOT signal, Boehringer light units (BLU); mean over the file's lines of this peptide of 119.

The molecule PTTRPTRPPPPLIP [O75376 1024-1038] gave a normalised SPOT signal, Boehringer light units (BLU); mean over the file's lines of this peptide of 4420.

In the case of QASRFQRPGRRMSE [Q9BZ71 507-520], the normalised SPOT signal, Boehringer light units (BLU); mean over the file's lines of this peptide is 445.

In turn, QAVFPFKPPQRIEA [Q9Y6X3 59-73] showed a normalised SPOT signal, Boehringer light units (BLU); mean over the file's lines of this peptide of 62.6.

Consider QSDSIRRPLRPGQY [O75878 30-43], for which the normalised SPOT signal, Boehringer light units (BLU); mean over the file's lines of this peptide came to 378.

The molecule QAGPPSRPPRYSSS [AAH32298 59-73] displayed a normalised SPOT signal, Boehringer light units (BLU); mean over the file's lines of this peptide of 7540.

Molecule PYPLILRPQRGVDL [P47712 557-570] returned a normalised SPOT signal, Boehringer light units (BLU); mean over the file's lines of this peptide of 282.

In turn, QDAYLSRPGRALAH [Q9UIW2 291-304] yielded a normalised SPOT signal, Boehringer light units (BLU); mean over the file's lines of this peptide of 219.

In turn, ASSRPGRPPKRSLG [BAC03761 161-175] gave a normalised SPOT signal, Boehringer light units (BLU); mean over the file's lines of this peptide of 20200.

Consider PVVPPRRPPPPKKT [Q9P2Q1 393-407], for which the normalised SPOT signal, Boehringer light units (BLU); mean over the file's lines of this peptide turned out to be 16000.

For the molecule ASSSPKRPSVERSN [O75764 109-122], the normalised SPOT signal, Boehringer light units (BLU); mean over the file's lines of this peptide came to 190.

PVAVLKRPSQLSRK [Q9BQI8 153-166]: the normalised SPOT signal, Boehringer light units (BLU); mean over the file's lines of this peptide came to 72.6.

Molecule QFPKLDRPTKQMRE [P78524 721-734] came in with a normalised SPOT signal, Boehringer light units (BLU); mean over the file's lines of this peptide of 133.

Regarding QAVLPPRPPKVLEF [Q9NWT4 356-370], the normalised SPOT signal, Boehringer light units (BLU); mean over the file's lines of this peptide is 1570.

Take QELLPGKPPKSRVL [Q8TC00 766-780]: the normalised SPOT signal, Boehringer light units (BLU); mean over the file's lines of this peptide amounted to 156.

In turn, PVLDLKRPFLSRES [P47985 41-54] showed a normalised SPOT signal, Boehringer light units (BLU); mean over the file's lines of this peptide of 50.1.

The molecule PWQRPKRPGHGHGW [Q03252 424-437] came in with a normalised SPOT signal, Boehringer light units (BLU); mean over the file's lines of this peptide of 204.

Molecule PVEAIKRPSPDEPM [Q9H3D6 83-96] showed a normalised SPOT signal, Boehringer light units (BLU); mean over the file's lines of this peptide of 101.

In turn, PVVLPWRPARAHSS [Q9Y2H3 1375-1388] came in with a normalised SPOT signal, Boehringer light units (BLU); mean over the file's lines of this peptide of 2120.

Take QEALPMRPAREGEL [Q9Y6J9 86-99]: the normalised SPOT signal, Boehringer light units (BLU); mean over the file's lines of this peptide came out at 70.9.

For the molecule QALYFSRPFRENVL [Q9H9T8 51-64], the normalised SPOT signal, Boehringer light units (BLU); mean over the file's lines of this peptide was determined as 224.

As for QALYFSRPFREKVL [O75317 40-53], the normalised SPOT signal, Boehringer light units (BLU); mean over the file's lines of this peptide came to 226.

QDSPPPKPPRTRSS [Q05209 329-343] gave a normalised SPOT signal, Boehringer light units (BLU); mean over the file's lines of this peptide of 2900.

On to QAGFPRRPPPRGTR [Q9UER3 87-101], for which the normalised SPOT signal, Boehringer light units (BLU); mean over the file's lines of this peptide was found to be 7340.

Turning to QGAGPSRPPTPGRN [O95398 328-342], the normalised SPOT signal, Boehringer light units (BLU); mean over the file's lines of this peptide came out at 2220.

ASSGLRRPEKPPYS [Q12947 91-104] gave a normalised SPOT signal, Boehringer light units (BLU); mean over the file's lines of this peptide of 106.

Take QAAFPRRPPPRGTR [Q9Y5N2 203-217]: the normalised SPOT signal, Boehringer light units (BLU); mean over the file's lines of this peptide worked out at 6430.

Regarding PVLSPRRPWPSLSW [Q9NUD3 48-61], the normalised SPOT signal, Boehringer light units (BLU); mean over the file's lines of this peptide was 109.

The molecule PTVTPRRPGRPDHR [P51511 317-330] had a normalised SPOT signal, Boehringer light units (BLU); mean over the file's lines of this peptide of 420.

For the molecule QAATPRRPAAISRP [Q96E55 116-129], the normalised SPOT signal, Boehringer light units (BLU); mean over the file's lines of this peptide is 1370.

The target in a further test is T1, amphyphisin SH3 (AMPH_HUMAN), P49418. As to the kind of experiment: SPOT array.
Turning to QAGGPQRPGRVVSL [Q13671 45-58], the normalised SPOT signal, Boehringer light units (BLU); mean over the file's lines of this peptide worked out at 4280.

QEDSPRKPPNFPVP [Q8TEE1 827-841] gave a normalised SPOT signal, Boehringer light units (BLU); mean over the file's lines of this peptide of 97.6.

Turning to QDLRPLRPPAQTPQ [O00456 524-538], the normalised SPOT signal, Boehringer light units (BLU); mean over the file's lines of this peptide was determined as 266.

The molecule PWRGFSRPSRFFSS [Q14968 167-180] returned a normalised SPOT signal, Boehringer light units (BLU); mean over the file's lines of this peptide of 3040.

As to PVLDLRRPPSDLYL [Q9Y618 2172-2185], the normalised SPOT signal, Boehringer light units (BLU); mean over the file's lines of this peptide is 35.4.

As to PTSVPRRPGQRRPP [P48023 33-46], the normalised SPOT signal, Boehringer light units (BLU); mean over the file's lines of this peptide was 32.6.

As to QAVHLPRPPRVLGL [Q9H960 30-43], the normalised SPOT signal, Boehringer light units (BLU); mean over the file's lines of this peptide was determined as 1920.

Take ASSRPGRPPKRTQS [Q9UI36 281-295]: the normalised SPOT signal, Boehringer light units (BLU); mean over the file's lines of this peptide was 950.

For QAQLPPKPPAWAWA [P54098 158-172], the normalised SPOT signal, Boehringer light units (BLU); mean over the file's lines of this peptide was found to be 38.5.

PTTRPTRPPPPLIP [O75376 1024-1038] displayed a normalised SPOT signal, Boehringer light units (BLU); mean over the file's lines of this peptide of 1510.

As for QASRFQRPGRRMSE [Q9BZ71 507-520], the normalised SPOT signal, Boehringer light units (BLU); mean over the file's lines of this peptide turned out to be 4120.

The molecule QAVFPFKPPQRIEA [Q9Y6X3 59-73] registered a normalised SPOT signal, Boehringer light units (BLU); mean over the file's lines of this peptide of 80.1.

Take QSDSIRRPLRPGQY [O75878 30-43]: the normalised SPOT signal, Boehringer light units (BLU); mean over the file's lines of this peptide amounted to 844.

QAGPPSRPPRYSSS [AAH32298 59-73] returned a normalised SPOT signal, Boehringer light units (BLU); mean over the file's lines of this peptide of 13600.

Take PYPLILRPQRGVDL [P47712 557-570]: the normalised SPOT signal, Boehringer light units (BLU); mean over the file's lines of this peptide amounted to 351.

Turning to QDAYLSRPGRALAH [Q9UIW2 291-304], the normalised SPOT signal, Boehringer light units (BLU); mean over the file's lines of this peptide was 165.

ASSRPGRPPKRSLG [BAC03761 161-175]: the normalised SPOT signal, Boehringer light units (BLU); mean over the file's lines of this peptide turned out to be 6850.

Molecule PVVPPRRPPPPKKT [Q9P2Q1 393-407] returned a normalised SPOT signal, Boehringer light units (BLU); mean over the file's lines of this peptide of 7830.

The molecule ASSSPKRPSVERSN [O75764 109-122] returned a normalised SPOT signal, Boehringer light units (BLU); mean over the file's lines of this peptide of 12.2.

PVAVLKRPSQLSRK [Q9BQI8 153-166]: the normalised SPOT signal, Boehringer light units (BLU); mean over the file's lines of this peptide was 46.3.

For QFPKLDRPTKQMRE [P78524 721-734], the normalised SPOT signal, Boehringer light units (BLU); mean over the file's lines of this peptide is 116.

In the case of QAVLPPRPPKVLEF [Q9NWT4 356-370], the normalised SPOT signal, Boehringer light units (BLU); mean over the file's lines of this peptide is 346.

With QELLPGKPPKSRVL [Q8TC00 766-780], the normalised SPOT signal, Boehringer light units (BLU); mean over the file's lines of this peptide was found to be 49.9.

Turning to PVLDLKRPFLSRES [P47985 41-54], the normalised SPOT signal, Boehringer light units (BLU); mean over the file's lines of this peptide is 47.

As to PWQRPKRPGHGHGW [Q03252 424-437], the normalised SPOT signal, Boehringer light units (BLU); mean over the file's lines of this peptide was found to be 43.

Regarding PVEAIKRPSPDEPM [Q9H3D6 83-96], the normalised SPOT signal, Boehringer light units (BLU); mean over the file's lines of this peptide worked out at 42.3.

As to PVVLPWRPARAHSS [Q9Y2H3 1375-1388], the normalised SPOT signal, Boehringer light units (BLU); mean over the file's lines of this peptide turned out to be 8510.

On to QEALPMRPAREGEL [Q9Y6J9 86-99], for which the normalised SPOT signal, Boehringer light units (BLU); mean over the file's lines of this peptide came to 2910.

Turning to QALYFSRPFRENVL [Q9H9T8 51-64], the normalised SPOT signal, Boehringer light units (BLU); mean over the file's lines of this peptide amounted to 2250.

On to QALYFSRPFREKVL [O75317 40-53], for which the normalised SPOT signal, Boehringer light units (BLU); mean over the file's lines of this peptide was 1060.

Regarding QDSPPPKPPRTRSS [Q05209 329-343], the normalised SPOT signal, Boehringer light units (BLU); mean over the file's lines of this peptide stood at 20600.

In turn, QAGFPRRPPPRGTR [Q9UER3 87-101] had a normalised SPOT signal, Boehringer light units (BLU); mean over the file's lines of this peptide of 6450.

Turning to QGAGPSRPPTPGRN [O95398 328-342], the normalised SPOT signal, Boehringer light units (BLU); mean over the file's lines of this peptide is 1010.

Take ASSGLRRPEKPPYS [Q12947 91-104]: the normalised SPOT signal, Boehringer light units (BLU); mean over the file's lines of this peptide stood at 57.5.

In the case of QAAFPRRPPPRGTR [Q9Y5N2 203-217], the normalised SPOT signal, Boehringer light units (BLU); mean over the file's lines of this peptide is 6180.

PVLSPRRPWPSLSW [Q9NUD3 48-61]: the normalised SPOT signal, Boehringer light units (BLU); mean over the file's lines of this peptide came to 101.

Molecule PTVTPRRPGRPDHR [P51511 317-330] yielded a normalised SPOT signal, Boehringer light units (BLU); mean over the file's lines of this peptide of 5240.

Consider QAATPRRPAAISRP [Q96E55 116-129], for which the normalised SPOT signal, Boehringer light units (BLU); mean over the file's lines of this peptide worked out at 178.

The record behind these values is PMC314469, “Protein Interaction Networks by Proteome Peptide Scanning” (PLoS Biology, 2004).
